Assay results: patent publication US20250051407A1, “De novo designed sequence-specific DNA binding proteins” (University of Washington, priority 2023, published 2025)
“Also recorded” adds a separate entry of the source.

Legend:
13 unique dsDNA targets = experiment: All-by-all yeast surface display screen of DBP design hits; format: binding; settings: for Number of the 13 tested DNA target sequences preferentially bound: including designed target sequence; for Target sequence preference: 13 unique dsDNA targets; for Binding specificity versus design models: all-by-all screen with Rosetta-predicted motifs
Procedure: And an all-by-all screen of DBP design hits to 13 unique dsDNA targets was performed (FIG. 4, table 2). […] To try to understand these observed binding preferences, each tested DNA sequence was threaded onto each design complex model at all possible base pair alignments, the alternative complex models were relaxed with Rosetta™, and the model with the most favorable Rosetta™ ΔΔG was selected.
Saccharomyces cerevisiae EBY100 strain cultures were grown in C-Trp-Ura medium supplemented with 2% (w/v) glucose. For induction of expression, yeast cells were centrifuged at 6,000 g for 1 min and resuspended in SGCAA medium supplemented with 0.2% (w/v) glucose at the cell density of 1×10^7 cells per ml and induced at 30° C. for 16-24 h. Cells were washed with PBSF (PBS with 1% (w/v) BSA) and labeled with biotinylated targets using two labeling methods: with-avidity and without-avidity labeling. For the with-avidity method, the cells were incubated with biotinylated target, together with anti-c-Myc fluorescein isothiocyanate (FITC, Miltenyi Biotech) and streptavidin-phycoerythrin (SAPE, ThermoFisher). The concentration of SAPE in the with-avidity method was used at one-quarter of the concentration of the biotinylated targets. For the without-avidity method, the cells were first incubated with biotinylated targets, washed and secondarily labeled with SAPE and FITC.
(§1) For yeast display characterization of individual designs, including competition assays, DNA sequences encoding the proteins of interest were purchased as Integrated DNA Technologies (IDT) E-Blocks™, transformed into yeast cells, and incubated in 96 well culture plates. Labeling with biotinylated dsDNA targets and SAPE/FITC was performed in a 96 well plate format. For yeast display competition assays, labeling was performed without avidity using 1 μM biotinylated dsDNA duplex oligos and an excess of 8 μM non-biotinylated competitor dsDNA duplex oligos. […] Flow cytometry analysis was performed with an Attune NxT™ flow cytometer with autosampler. Flow cytometry data analysis was performed using custom python code and the CytoFlow™ python package. For each individual sample, gating of the expression population was performed using the CytoFlow™ Gaussian Mixture Model and the ratio of SAPE channel intensity to FITC channel intensity (binding signal/expression signal) was calculated for all gated expression events of the sample.

[1] = test system: biotinylated target dsDNA with non-biotinylated competitor dsDNA; experiment: Yeast display competition assay with base-substituted competitor dsDNA; format: binding; settings: all possible base mutations at each position of the competitor oligo
From the text: We used a yeast display competition assay to characterize the DNA binding site specificity of a subset of the designs (FIG. 1A-E, left; FIG. 5). Addition of non-biotinylated competitor dsDNA to biotinylated target sequence reduced binding signal by flow cytometry (FIG. 1A-E, middle). […] For example, in DBP6 (FIG. 1A) R31 and R36 in the design model form bidentate hydrogen bonds with the guanines of base pair positions G12 and C9, respectively, while T32 forms a hydrogen bond with C10.
as §1

[2] = test system: synTF-specific cis-regulatory elements (CRE) in HEK293T cells; experiment: Transcriptional activation by synTFs in HEK293T cells (ENGRAM); format: cell-based; settings: DBP fused to GCN4 dimerization domain and VP64; HEK293T cells expressing PEmax; dependent on spacing between motifs
From the text: Next, we investigated whether the DBPs can be used as activators in mammalian cells. A set of synthetic transcription factors (synTFs) were created by fusing the GCN4 dimerization domain and the VP64 activation domain to the C-termini of DBPs 9, 35opt, 48, 57, and 60 which recognize 3 unique motifs. The dimerization domain allows the DBPs to recognize a palindromic target sequence consisting of two binding motifs, improving the binding affinity to the DNA sequence (FIG. 2C). We created synTF specific cis-regulatory elements (CRE) with 4 repeats spaced by 6 bp to drive the expression of downstream genes, and used the ENGRAM (43) recording technology to measure the activity of the synTFs in HEK293 cells. In ENGRAM, each CRE drives the expression of a uniquely barcoded pegRNA, which upon expression is recorded into the DNA TAPE at the HEK3 locus by prime-editor (PEmax); the activity of individual synTFs can be measured as the abundance of the barcode on the DNA TAPE (FIG. 2C). We first tested 3 different spacings-1 bp, 3 bp, and 5 bp-between the palindromic binding motifs to maximize the recorder activity. 3 synTF specific recorders and 1 TCF-LEF-recorder (negative control) were mixed with ratio 2:2:2:1 and co-transfected with synTFs into the HEK293T cells expressing PEmax. Cells were harvested and analyzed 2 days post-transfection. After analyzing the barcode abundance on the DNA TAPE, we observed 3-5 fold activation for DBP9/DBP35 and DBP57/DBP60 (FIG. 2D).
HEK293T cells expressing PEmax™ were cultured in DMEM High glucose (GIBCO), supplemented with 10% Fetal Bovine Serum (Rocky Mountain Biologicals) and 1% penicillin-streptomycin (GIBCO). Cells were grown with 5% CO2 at 37° C. 1×10^5 cells were seeded on a 48-well plate a day before transfection. Enhancer plasmid and binder plasmid were mixed with a ratio of 2:1. Enhancer variants and background control were mixed with a ratio of 2:2:2:1. A total of 300 ng of plasmid were transfected using Lipofectamine™ 3000 (ThermoFisher, L3000015), following the manufacturer's protocol. Cells were harvested 2 days post-transfection. Genomic DNA was extracted based on the protocol described earlier (43). Briefly, cells were lysed using freshly prepared lysis buffer (10 mM Tris-HCl, pH 7.5; 0.05% SDS; 25 µg/ml protease (ThermoFisher)) for each well. The genomic DNA mixture was incubated at 50° C. for 1 h, followed by an 80° C. enzyme inactivation step for 30 min. The DNA TAPE was amplified from the genomic DNA directly for next generation sequencing. Recorded information was extracted via custom analysis code. Each enhancer has a unique barcode representing its activity. Transcription activation was measured as the fold change in the barcode abundance relative to the negative control barcode. All measurements were performed in triplicates.

| Molecule | Number of the 13 tested DNA target sequences preferentially bound (13 unique dsDNA targets; 1 μM dsDNA with avidity) | Target sequence preference (13 unique dsDNA targets) | Binding specificity versus design models (13 unique dsDNA targets) | also measured |
| --- | --- | --- | --- | --- |
| DBP90: designed DNA-binding protein, SEQ ID NO: 49, DNA target A (NKYQLSLLESAFQSNRYPDISQRATLASQTGLPERRIKIWFQNRRQRWKRKK) |  |  |  | Binding to initial design target (13 unique dsDNA targets; yeast surface display, 1 μM dsDNA with avidity): bound weakly; Binding to alternate target sequence (13 unique dsDNA targets; yeast surface display, 1 μM dsDNA with avidity, alternate target H (DBP90), D (DBP48), C (DBP57)): strongly |
| DBP83: designed DNA-binding protein, SEQ ID NO: 43, DNA target A (PREREILRLLAEGKNAWEIAQILNISVRTVRNHLRNAMRKLGARNRVQAVARALRLG) | less than 3 |  |  |  |
| DBP44: designed DNA-binding protein, SEQ ID NO: 18, DNA target G (KEERVLAALEAHPWSTLAEIAELTGLSRSTVSRILSRLRKEGKCDSRREGRKVRYWLVRR) |  | bound to most of the targets |  |  |
| DBP51: designed DNA-binding protein, SEQ ID NO: 25, DNA target E (MEADPAVVFGRRLRAARRAKGLTQAELAERAGLGQGTISRYEKGRTLPSPEQVEKLLAAL) | less than 3 |  | bound with specificity closely consistent with the design models |  |
| DBP69: designed DNA-binding protein, SEQ ID NO: 38, DNA target C (MKEEGRKLKELRERLGLTQAELAEALGLGQSTISRLERGRKEISPEVWEKALALLE) | less than 3 |  | bound with specificity closely consistent with the design models |  |
| DBP23: designed DNA-binding protein, SEQ ID NO: 9, DNA target B (PLAELGKAIKEARKRKGLTQAEVAKAAGVSRATVQRLELGKAKSIRPDKLRAILEVVGL) |  | bound to most of the targets |  |  |
| DBP52: designed DNA-binding protein, SEQ ID NO: 26, DNA target E (RPLTPAEVFGRELRRLRRAAGLTQAELAERAGIGQGTVSRYEHGRRLPSPEEQERLLAAL) |  | strong preference for 2 or 3 of the sequence targets |  |  |
| DBP9: designed DNA-binding protein, SEQ ID NO: 6, DNA target B (DWERRCAYARRARKELGLTQAELGELAGVSRTTVSRIERGKPDVSEASVEAVLAVL) | less than 3 | strong preference for only their designed target sequence | bound with specificity closely consistent with the design models | DNA binding site specificity [1]: specificity for a 6 nucleotide stretch (TGCACA) with peripheral dependence on T8 and A13; Fold activation of synTFs measured as normalized barcode abundance in the DNA TAPE [2]: 3-5 fold |
| DBP89: designed DNA-binding protein, SEQ ID NO: 48, DNA target A (protein) SPAAFDKLTARELAVARLVAQGLPNREIAAALHISPRAVEAHLRKIYRKLGIRRRRELAALLA |  | bound to most of the targets |  |  |
| DBP62: designed DNA-binding protein, SEQ ID NO: 36, DNA target F (protein) KEELEKLLKIIESLPKKFREVIILKFVEGLSYTEIAERLGVSRGAVYSRLRSALKKIEEALKK | less than 3 | strong preference for only their designed target sequence | bound with specificity closely consistent with the design models | DNA binding site specificity [1]: dependent on bases peripheral to the binding site (e.g. C11); also recorded: exhibited specificity for its target site |
| DBP5: designed DNA-binding protein, SEQ ID NO: 3, DNA target A (protein) GFGKAVKAKRAELGLTQAEFAERAGLSRRTIIRIEQGKVKATSTTAEKIAAALGTTVQELEQA |  |  | bound with specificity closely consistent with the design models |  |
| DBP43: designed DNA-binding protein, SEQ ID NO: 17, DNA target G (protein) MEELKKLLESGDPKLQGEAVKKIREKLGLTQREFGKKIGVGQAKVSRIEAGKIKLTPELKEKILE |  |  | bound with specificity closely consistent with the design models |  |
| DBP60: designed DNA-binding protein, SEQ ID NO: 34, DNA target E (protein) DIEKIAKAVKELREELGLTQAEFAKKIGIGQGTLSRFEKGGVLSPKTMERLLKALEKEFGFDVKK | less than 3 | strong preference for 2 or 3 of the sequence targets | bound with specificity closely consistent with the design models | Fold activation of synTFs measured as normalized barcode abundance in the DNA TAPE [2]: 3-5 fold |
| DBP47: designed DNA-binding protein, SEQ ID NO: 21, DNA target D (protein) MTPEERERAKEIGREIRELRRERGLTQRELADLLGVSRSTVSDIESGRRLPSEELLRRIREILGV | less than 3 |  | bound with specificity closely consistent with the design models |  |
| DBP56: designed DNA-binding protein, SEQ ID NO: 30, DNA target E (protein) PPPTPFEVAGARIKEERAKLGLTQAELAKVAGVGQATVSRIEKGRKCSWELIEKIFEALKKV | less than 3 |  | bound with specificity closely consistent with the design models | DNA binding site specificity [1]: specificities consistent with the designed sidechain-base interactions |
